According to the supplement of paper PMC10567573:
± gives the standard deviation.

Assay: protein stability index of a GFP-peptide fusion (GPS, HEK-293T) (PSI 1-6); higher = more stable
[1] = treatment: DMSO, c terminus: a fixed tail appended
[2] = treatment: MLN4924 1 uM, 8 h, c terminus: a fixed tail appended
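Further: 24-mer peptide tiles fused after GFP, lentivirally expressed, FACS-sorted into six equal bins by GFP/DsRed ratio, decoded by Illumina sequencing, PSI is the read-weighted mean bin number.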

Row | Sequence | protein stability index [1] | protein stability index [2] | protein stability index (treatment: DMSO, c terminus: native) | protein stability index (treatment: MLN4924 1 uM, 8 h, c terminus: native)
1 | SLQPRRSIAFRLRLASFDSSGKLI [GMCL1] | 2.62 ± 0.44 | 2.39 ± 0.27 | – | –
2 | SSSSFDPSVFDGLGDLLMPTMAPA [SNAP91] | 3.55 ± 0.25 | 3.72 ± 0.33 | – | –
3 | TDRSFNIVDIKPANMEDLTEVITA [PPP2R2C] | 4.42 ± 0.14 | 4.37 ± 0.15 | – | –
4 | LGFRAFSGSGNRLDGKKKGVEPSP [UFD1] | 4.25 ± 0.46 | 3.94 ± 0.29 | – | –
5 | AAIFSLFFVPLSYLLMVTVILLPY [TMEM175] | 2.91 ± 0.11 | 3.01 ± 0.53 | – | –
6 | CMSIVTSMTAGVSEREANDALNAY [INTS3] | 3.41 ± 0.3 | 3.49 ± 0.21 | – | –
7 | FSPSQFLNFWNKQDTLELESPSLT [MYBL2] | 2.47 ± 0.55 | 3.06 ± 0.39 | – | –
8 | SRTTCLFLHLRTHTEERPYECNHC [ZNF8] | 2.62 ± 0.45 | 2.8 ± 0.43 | – | –
9 | MKIKQDRASRTYELQNQLAACTRA [FSD1] | 3.52 ± 0.12 | 3.62 ± 0.38 | – | –
10 | LKIDFGDSARADDARQLFVLAGAA [GNAI1] | 2.59 ± 0.37 | 2.68 ± 0.27 | – | –
11 | NYEKEEEFLTNELSRKLMQLQHEK [CCDC6] | 4.43 ± 0.15 | 4.55 ± 0.38 | – | –
12 | VLLKTADPRYELPSRKYISTKAIP [ZBED1] | 2.19 ± 0.37 | 2.34 ± 0.62 | – | –
13 | YHPRDQNKVLVCPMKSAPVMLTLS [RBBP5] | 2.33 ± 0.66 | 2.34 ± 0.3 | – | –
14 | YNPSFEDHQTLLSAAHEVELQRQK [NOP53] | 4.19 ± 0.56 | 4.35 ± 0.44 | – | –
15 | IRVLLAFIVLFLLWPFAWLQVAGL [LPCAT4] | 2.6 ± 0.69 | 3.14 ± 0.44 | – | –
16 | RLCAPLFRNIKQEPFSARVLVLCV [SOAT1] | 2.73 ± 0.84 | 2.85 ± 1.4 | – | –

Row | Sequence | protein stability index [1] | protein stability index [2] | protein stability index (treatment: DMSO, c terminus: native) | protein stability index (treatment: MLN4924 1 uM, 8 h, c terminus: native)
17 | TSEVDKRRTRPRHHHGRSRPDRSS [CHGB] | 5.07 ± 0.37 | 5.06 ± 0.31 | – | –
18 | LNHVKSMWYPEIKHFCPRTPVILV [RHOBTB1] | 3.16 ± 0.47 | 3.1 ± 0.82 | – | –
19 | PVKPVTFSTGIKMGQHISLAPIHK [MNAT1] | 2.96 ± 0.34 | 2.96 ± 0.32 | – | –
20 | SGSGFGSVSWWGLSPALDLQAESP [DNAAF3] | 2.69 ± 0.56 | 2.43 ± 0.097 | – | –
21 | FEFDETSFWNSSHPRGWNDHVHIL [KLHDC2] | 2.37 ± 0.64 | 2.18 ± 0.28 | – | –
22 | AFQHTPTSITLTASRVSKVNDKRR [KMT2E] | 3.74 ± 0.27 | 4.11 ± 0.47 | – | –
23 | LDSNGAGEKSENNSSNSDIVHVEK [BCL2L13] | 5.57 ± 0.22 | 5.6 ± 0.13 | – | –
24 | VNNNYEHRHTSHLGHAVLPSNARG [SPRY1] | 3.96 ± 0.2 | 4.03 ± 0.21 | – | –
25 | QRFGEALQDQEKAWGFPENATAPR [ELOA2] | 4.78 ± 0.23 | 4.68 ± 0.46 | – | –
26 | EYVHSKNLIYRDVKPENFLIGRPG [CSNK1G3] | 2.79 ± 0.32 | 2.78 ± 0.32 | – | –
27 | LVMPLEEKLTKITRTGPSAWETKK [PCMTD2] | 3.79 ± 0.21 | 3.75 ± 0.23 | – | –
28 | TLSLKQTILDKEEKQRRNVAKNY [TTC32] | – | – | 4.27 ± 0.36 | 4.29 ± 0.54
29 | GGMNHSAFPQTPFKTGNSTATCTT [KCNA3] | 4.27 ± 0.24 | 4.4 ± 0.4 | – | –
30 | SQLDEDEHGLHTKYIHRMMQIEFI [TRAF3IP2] | 2.44 ± 0.1 | 2.56 ± 0.34 | – | –
31 | AFSHKSMRDRHVNMHLNLRPFDCP [ZBTB22] | 2.4 ± 0.15 | 2.47 ± 0.19 | – | –
